How the values were obtained:
Experiment in all cases: cell-based or functional assay
hGLP-1R = hGLP-1R (Homo sapiens, UniProt P43220)
[1] = target: T1, human GIP receptor (human) (UniProt P48546)
T1 sequence (looked up): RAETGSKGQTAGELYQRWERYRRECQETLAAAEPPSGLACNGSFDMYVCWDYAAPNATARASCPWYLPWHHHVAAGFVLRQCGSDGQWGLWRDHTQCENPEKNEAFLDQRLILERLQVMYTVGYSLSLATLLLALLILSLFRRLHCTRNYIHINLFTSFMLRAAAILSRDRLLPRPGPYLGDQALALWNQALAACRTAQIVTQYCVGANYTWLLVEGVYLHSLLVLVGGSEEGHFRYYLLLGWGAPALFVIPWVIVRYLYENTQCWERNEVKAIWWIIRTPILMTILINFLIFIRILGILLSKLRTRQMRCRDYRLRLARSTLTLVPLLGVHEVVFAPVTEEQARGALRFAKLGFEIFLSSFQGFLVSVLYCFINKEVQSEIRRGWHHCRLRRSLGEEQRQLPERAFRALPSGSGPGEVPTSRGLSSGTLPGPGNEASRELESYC

[2] = target: human glucagon receptor (human) (UniProt P47871)
Sequence of human glucagon receptor (human) (P47871 26-477): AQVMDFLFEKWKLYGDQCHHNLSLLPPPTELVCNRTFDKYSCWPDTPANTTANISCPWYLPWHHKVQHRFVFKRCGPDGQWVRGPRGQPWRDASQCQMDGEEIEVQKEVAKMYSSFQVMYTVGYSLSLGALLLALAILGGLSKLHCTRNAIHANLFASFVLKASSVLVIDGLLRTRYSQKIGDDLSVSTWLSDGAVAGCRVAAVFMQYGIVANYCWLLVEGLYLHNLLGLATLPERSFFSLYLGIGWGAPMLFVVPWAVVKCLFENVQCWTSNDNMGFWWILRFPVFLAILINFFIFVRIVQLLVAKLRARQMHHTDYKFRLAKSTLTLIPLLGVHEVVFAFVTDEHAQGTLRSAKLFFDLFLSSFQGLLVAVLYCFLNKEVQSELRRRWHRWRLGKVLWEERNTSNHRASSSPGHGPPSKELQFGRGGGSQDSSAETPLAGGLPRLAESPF

Sequence of hGLP-1R (P43220 24-463): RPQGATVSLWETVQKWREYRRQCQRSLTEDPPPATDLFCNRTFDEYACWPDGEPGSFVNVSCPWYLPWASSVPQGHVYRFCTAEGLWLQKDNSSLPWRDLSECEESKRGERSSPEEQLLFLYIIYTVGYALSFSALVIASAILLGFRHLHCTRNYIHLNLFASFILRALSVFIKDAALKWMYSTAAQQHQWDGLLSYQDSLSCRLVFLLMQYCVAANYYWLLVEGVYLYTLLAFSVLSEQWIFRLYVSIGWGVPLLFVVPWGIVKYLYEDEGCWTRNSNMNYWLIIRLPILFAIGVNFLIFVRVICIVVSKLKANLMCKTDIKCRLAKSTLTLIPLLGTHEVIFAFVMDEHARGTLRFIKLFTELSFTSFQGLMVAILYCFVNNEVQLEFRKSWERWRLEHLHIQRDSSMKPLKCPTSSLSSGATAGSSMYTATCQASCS

B1: Example 65 (peptide)
chain: YXQGTFTSDFSXXLDKKAQXAFIEYLLEGGPSSGAPPPGGSE
modifications: synthetic construct; SITE 2: note = 2-Aminoisobutyric Acid; SITE 12: note = L-ornithine; SITE 13: note = alpha-methyl-leucine; SITE 17: note = Lysine is chemically modified through conjugation of the epsilon-amino group of the Lysine side chain with (2-[2-(2-Amino-ethoxy)-ethoxy]-acetyl)-(gamma-Glu)
Relative cAMP EC50 (hGLP-1R): 4.21 nM
cAMP Rel EC50, nM (in the presence of 1% HSA) (hGLP-1R): 462 nM
Relative cAMP EC50 [1]: 0.739 nM
cAMP Rel EC50, nM (in the presence of 1% HSA) [1]: 30.2 nM
Relative cAMP EC50 [2]: 6.49 nM
cAMP Rel EC50, nM (in the presence of 1% HSA) [2]: 808 nM

B2: Example 693 (peptide)
chain: YXQGTXTSDXXIXLDXKAAXEFIEXLVEGGPSSGAPPPSGS
modifications: synthetic construct; SITE 2: note = 2-Aminoisobutyric Acid; SITE 6: note = alpha-methyl-2-fluoro-L-phenylalanine; SITE 10: note = 3-(4-Pyridyl)-L-alanine; SITE 11: note = alpha-methyl-L-serine; SITE 13: note = alpha-methyl-leucine; SITE 16: note = L-ornithine; SITE 17: note = Lysine is chemically mo
cAMP Rel EC50 (1% HSA) (hGLP-1R): 18 nM
cAMP Rel EC50 (1% HSA) [1]: 1.1 nM
cAMP Rel EC50 (1% HSA) [2]: 304 nM

B3: Example 695 (peptide)
chain: YXQGTXTSDXXIXLDXKAAXEFIEXLVEGGPSSGEPPPSGS
modifications: synthetic construct; SITE 2: note = 2-Aminoisobutyric Acid; SITE 6: note = alpha-methyl-2-fluoro-L-phenylalanine; SITE 10: note = 3-(4-Pyridyl)-L-alanine; SITE 11: note = alpha-methyl-L-serine; SITE 13: note = alpha-methyl-leucine; SITE 16: note = L-ornithine; SITE 17: note = Lysine is chemically mo
cAMP Rel EC50 (1% HSA) (hGLP-1R): 19.5 nM
cAMP Rel EC50 (1% HSA) [1]: 0.772 nM
cAMP Rel EC50 (1% HSA) [2]: 164 nM

B4: Example 697 (peptide)
chain: YXQGTXTSDXXIXLDXKAQXXFIEXLIEGGPSSGEPPPEGTGE
modifications: synthetic construct; SITE 2: note = 2-Aminoisobutyric Acid; SITE 6: note = alpha-methyl-2-fluoro-L-phenylalanine; SITE 10: note = 3-(4-Pyridyl)-L-alanine; SITE 11: note = alpha-methyl-L-serine; SITE 13: note = alpha-methyl-leucine; SITE 16: note = L-ornithine; SITE 17: note = Lysine is chemically mo
Relative cAMP EC50 (hGLP-1R): 0.235 nM
cAMP Rel EC50 (1% HSA) (hGLP-1R): 18.2 nM
Relative cAMP EC50 [1]: 0.0109 nM
cAMP Rel EC50 (1% HSA) [1]: 0.607 nM
Relative cAMP EC50 [2]: 1.71 nM
cAMP Rel EC50 (1% HSA) [2]: 130 nM

B5: Example 698 (peptide)
chain: YXQGTXTSDXXIXLDXKAQXXFIEXLIEGGPSSGEPPPEGE
modifications: synthetic construct; SITE 2: note = 2-Aminoisobutyric Acid; SITE 6: note = alpha-methyl-2-fluoro-L-phenylalanine; SITE 10: note = 3-(4-Pyridyl)-L-alanine; SITE 11: note = alpha-methyl-L-serine; SITE 13: note = alpha-methyl-leucine; SITE 16: note = L-ornithine; SITE 17: note = Lysine is chemically mo
Relative cAMP EC50 (hGLP-1R): 0.252 nM
cAMP Rel EC50 (1% HSA) (hGLP-1R): 20.6 nM
Relative cAMP EC50 [1]: 0.0112 nM
cAMP Rel EC50 (1% HSA) [1]: 0.824 nM
Relative cAMP EC50 [2]: 1.53 nM
cAMP Rel EC50 (1% HSA) [2]: 124 nM

B6: Example 702 (peptide)
chain: YXQGTXTSDXXIXLDXKAAXEFIEXLIEGGPSSGAPPPSGSE
modifications: synthetic construct; SITE 2: note = 2-Aminoisobutyric Acid; SITE 6: note = alpha-methyl-2-fluoro-L-phenylalanine; SITE 10: note = 3-(4-Pyridyl)-L-alanine; SITE 11: note = alpha-methyl-L-serine; SITE 13: note = alpha-methyl-leucine; SITE 16: note = L-ornithine; SITE 17: note = Lysine is chemically mo
Relative cAMP EC50 (hGLP-1R): 0.243 nM
cAMP Rel EC50 (1% HSA) (hGLP-1R): 28.4 nM
Relative cAMP EC50 [1]: 0.0116 nM
cAMP Rel EC50 (1% HSA) [1]: 1.25 nM
Relative cAMP EC50 [2]: 1.5 nM
cAMP Rel EC50 (1% HSA) [2]: 196 nM

B7: Example 703 (peptide)
chain: YXQGTXTSDXXIXLDXKAAXEFIEXLIEGGPSSGAPPPSGEE
modifications: synthetic construct; SITE 2: note = 2-Aminoisobutyric Acid; SITE 6: note = alpha-methyl-2-fluoro-L-phenylalanine; SITE 10: note = 3-(4-Pyridyl)-L-alanine; SITE 11: note = alpha-methyl-L-serine; SITE 13: note = alpha-methyl-leucine; SITE 16: note = L-ornithine; SITE 17: note = Lysine is chemically mo
Relative cAMP EC50 (hGLP-1R): 0.233 nM
cAMP Rel EC50 (1% HSA) (hGLP-1R): 27.1 nM
Relative cAMP EC50 [1]: 0.0101 nM
cAMP Rel EC50 (1% HSA) [1]: 0.961 nM
Relative cAMP EC50 [2]: 1.56 nM
cAMP Rel EC50 (1% HSA) [2]: 201 nM

B8: Example 704 (peptide)
chain: YXQGTXTSDXXIXLDXKAAXEFIEXLIEGGPSSGAPPPSGSEE
modifications: synthetic construct; SITE 2: note = 2-Aminoisobutyric Acid; SITE 6: note = alpha-methyl-2-fluoro-L-phenylalanine; SITE 10: note = 3-(4-Pyridyl)-L-alanine; SITE 11: note = alpha-methyl-L-serine; SITE 13: note = alpha-methyl-leucine; SITE 16: note = L-ornithine; SITE 17: note = Lysine is chemically mo
Relative cAMP EC50 (hGLP-1R): 0.287 nM
cAMP Rel EC50 (1% HSA) (hGLP-1R): 33.9 nM
Relative cAMP EC50 [1]: 0.013 nM
cAMP Rel EC50 (1% HSA) [1]: 1.2 nM
Relative cAMP EC50 [2]: 1.85 nM
cAMP Rel EC50 (1% HSA) [2]: 239 nM

B9: Example 705 (peptide)
chain: YXQGTXTSDXXIXLDXKAAXEFIEXLIEGGPSSGAPPPSGEEE
modifications: synthetic construct; SITE 2: note = 2-Aminoisobutyric Acid; SITE 6: note = alpha-methyl-2-fluoro-L-phenylalanine; SITE 10: note = 3-(4-Pyridyl)-L-alanine; SITE 11: note = alpha-methyl-L-serine; SITE 13: note = alpha-methyl-leucine; SITE 16: note = L-ornithine; SITE 17: note = Lysine is chemically mo
Relative cAMP EC50 (hGLP-1R): 0.305 nM
cAMP Rel EC50 (1% HSA) (hGLP-1R): 33.7 nM
Relative cAMP EC50 [1]: 0.0128 nM
cAMP Rel EC50 (1% HSA) [1]: 1.15 nM
Relative cAMP EC50 [2]: 1.7 nM
cAMP Rel EC50 (1% HSA) [2]: 234 nM

B10: Example 707 (peptide)
chain: YXQGTXTSDXXIXLDXKAAXEFIEXLIEGGPSSGEPPPSGS
modifications: synthetic construct; SITE 2: note = 2-Aminoisobutyric Acid; SITE 6: note = alpha-methyl-2-fluoro-L-phenylalanine; SITE 10: note = 3-(4-Pyridyl)-L-alanine; SITE 11: note = alpha-methyl-L-serine; SITE 13: note = alpha-methyl-leucine; SITE 16: note = L-ornithine; SITE 17: note = Lysine is chemically mo
Relative cAMP EC50 (hGLP-1R): 0.248 nM
cAMP Rel EC50 (1% HSA) (hGLP-1R): 30.6 nM
Relative cAMP EC50 [1]: 0.0107 nM
cAMP Rel EC50 (1% HSA) [1]: 1.05 nM
Relative cAMP EC50 [2]: 1.06 nM
cAMP Rel EC50 (1% HSA) [2]: 199 nM

B11: Example 719 (peptide)
chain: YXQGTXTSDXXIXLDXKAAXEFIEXLIEGGPSSGEPPPSGTE
modifications: synthetic construct; SITE 2: note = 2-Aminoisobutyric Acid; SITE 6: note = alpha-methyl-2-fluoro-L-phenylalanine; SITE 10: note = 3-(4-Pyridyl)-L-alanine; SITE 11: note = alpha-methyl-L-serine; SITE 13: note = alpha-methyl-leucine; SITE 16: note = L-ornithine; SITE 17: note = Lysine is chemically mo
Relative cAMP EC50 (hGLP-1R): 0.22 nM
cAMP Rel EC50 (1% HSA) (hGLP-1R): 23.2 nM
Relative cAMP EC50 [1]: 0.00998 nM
cAMP Rel EC50 (1% HSA) [1]: 0.882 nM
Relative cAMP EC50 [2]: 1.44 nM
cAMP Rel EC50 (1% HSA) [2]: 181 nM

Source: patent US20240270821A1, “GIP/GLP1/GCG TRI-RECEPTOR AGONISTS AND USES THEREOF” (priority 2023, published 2024)
